In experiment [1] the target is bovine serum albumin (BSA) (bovine) (UniProt P02769). Description: cell-based or functional assay.
Experiment [2] concerns the target C5b-8 and C5b-9 complexes (human). Description: cell-based or functional assay.

Sequence of UniProt P02769 (P02769 25-607 limits assumed): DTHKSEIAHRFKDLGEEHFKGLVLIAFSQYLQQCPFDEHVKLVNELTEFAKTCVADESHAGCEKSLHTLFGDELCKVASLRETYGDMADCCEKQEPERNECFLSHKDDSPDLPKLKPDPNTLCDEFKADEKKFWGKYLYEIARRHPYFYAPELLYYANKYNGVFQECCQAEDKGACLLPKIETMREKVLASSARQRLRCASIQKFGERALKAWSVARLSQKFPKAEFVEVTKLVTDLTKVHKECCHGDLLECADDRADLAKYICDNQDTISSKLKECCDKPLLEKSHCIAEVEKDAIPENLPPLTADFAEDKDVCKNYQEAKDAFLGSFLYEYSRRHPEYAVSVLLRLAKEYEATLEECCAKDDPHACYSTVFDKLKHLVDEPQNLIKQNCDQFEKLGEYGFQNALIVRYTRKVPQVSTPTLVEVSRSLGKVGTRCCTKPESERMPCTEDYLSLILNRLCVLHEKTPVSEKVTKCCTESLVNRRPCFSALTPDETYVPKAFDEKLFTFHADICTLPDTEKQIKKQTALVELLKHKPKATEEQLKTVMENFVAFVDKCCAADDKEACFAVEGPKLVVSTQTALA

Regarding “APT070, [SCR1-3]-Cys-S-S-[MSWP-1] (from UniProt P17927 42-237) (other; unit assumed)”, in experiment [1], the IH50 of inhibition of haemolysis, 4 mg/ml BSA [No BSA: 0.26 at the 13th table, row 8, column 3] stood at 1.3 nM and the IH50 of inhibition of haemolysis, 40 mg/ml BSA [No BSA: 0.26 at the 13th table, row 8, column 3] came out at 10 nM.

For “APT070, [SCR1-3]-Cys-S-S-[MSWP-1] (from UniProt P17927 42-237)”, in experiment [1], the IH50 (nM) of inhibition of haemolysis, Presence of Albumin (40 mg/ml) [absence of albumin: 0.26 at the 11th table, row 9, column 3] worked out at 10 nM.

B1: Recombinant human CD59 (lacking the GPI anchor), with an amino-terminal methionine and a carboxy-terminal cysteine (APT2439) (protein)
chain: MLQCYNCPNPTADCKTAVNCSSDFDACLITKAGLQVYNKCWKFEHCNFNDVTTRLRENELTYYCCKKDLCNFNEQLENC
For B1, in experiment [2], the IH50 (nM), reactive lysis of guinea pig erythrocytes, Absence of HSA was determined as 600 nM and the IH50 (nM), reactive lysis of guinea pig erythrocytes, Presence of HSA (2.7 mg/ml) is 400 nM.

B2: APT3280, conjugate of APT2439 and APT3146 via a disulphide (protein, human)
chain: B1 chain
peptide: KSSKSPSKKDDKKPGDC
modifications: bisMyr at the N-terminal Lys; Cys (thiopyridylated before conjugation) disulphide-linked to CD59; carboxy-terminal Cys disulphide-linked to APT3146
Consider B2, for which, in experiment [2], the IH50 (nM), reactive lysis of guinea pig erythrocytes, Absence of HSA amounted to 0.1 nM and the IH50 (nM), reactive lysis of guinea pig erythrocytes, Presence of HSA (2.7 mg/ml) is 0.08 nM.

B3: APT3073, conjugate of APT2439 and APT2258 via a disulphide (protein, human)
chain: B1 chain
peptide: GSSKSPSKKDDKKPGDC
modifications: N-terminal myristoyl (Myr-); C-terminal amide (-NH2); Cys (2-SPy before conjugation) disulphide-linked to CD59; carboxy-terminal Cys disulphide-linked to APT2258
Take B3: in experiment [2], the IH50 (nM), reactive lysis of guinea pig erythrocytes, Absence of HSA was 0.8 nM and the IH50 (nM), reactive lysis of guinea pig erythrocytes, Presence of HSA (2.7 mg/ml) was determined as 6 nM.

The record behind these values is US20060241048A1.
